{"source": "paper doi:10.1101/2021.11.12.468217", "about": "(bioRxiv, 2021)", "binders": {"B1": {"name": "DesR_REC-Q10A, receiver domain of DesR with Q10A, as crystallised with DesKC_H188E (domain or fragment)", "chain": "MISIFIAEDAQMLLGALGSLLNLEDDMEVVGKGTTGQDAVDFVKKRQPDVCIMDIEMPGKTGLEAAEELKDTGCKIIILTTFARPGYFQRAIKAGVKGYLLKDSPSEELANAIRSVMNGKRIYAPELMEDLYSEA"}, "B2": {"name": "Phosphorylated DesR_REC-Q10A (domain or fragment)", "chain": "B1 chain"}, "B3": {"name": "Phosphorylated DesR-REC (P~DesRREC), wild type (domain or fragment)", "chain": "B1 chain with A10Q"}}, "key": {"[1]": {"biological_target": "T1, DesKC_H188E, DesKC trapped in the phosphotransferase state (Bacillus subtilis, UniProt O34757, H188E)", "T1 sequence": "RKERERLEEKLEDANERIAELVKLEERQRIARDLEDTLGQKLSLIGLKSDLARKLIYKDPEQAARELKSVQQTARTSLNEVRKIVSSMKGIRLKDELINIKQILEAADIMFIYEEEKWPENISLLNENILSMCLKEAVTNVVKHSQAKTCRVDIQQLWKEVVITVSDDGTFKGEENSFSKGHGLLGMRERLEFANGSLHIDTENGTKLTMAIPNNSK", "experiment": "crystal structure"}, "[2]": {"biological_target": "the molecule itself"}, "SEC": {"biological_target": "the molecule itself", "experiment": "SEC"}}, "note": "Positions count from the first letter of the chain named. Names and notes keep the numbering of the source."}
{"binder": "B1", "values": [{"measurement": "binding result", "setting": "[1]", "result": "binds"}]}
{"binder": "B2", "values": [{"measurement": "Kd", "setting": "[2]", "result": 1440, "unit": "nM"}, {"measurement": "fold increase of the KD of dimerization against wild type P~RR", "setting": "[2]", "result": 4, "unit": "fold"}]}
{"binder": "B3", "values": [{"measurement": "binding result", "setting": "SEC", "result": "binds"}]}
